Where a chain is given by its changes, count along the chain named. Each block holds one binder with its values, some of them ahead of it.
Tests used:
Test in all cases: FACS
human Clec10A = molecular target: T1, human Clec10A (human, UniProt Q8IUN9)
T1 chain: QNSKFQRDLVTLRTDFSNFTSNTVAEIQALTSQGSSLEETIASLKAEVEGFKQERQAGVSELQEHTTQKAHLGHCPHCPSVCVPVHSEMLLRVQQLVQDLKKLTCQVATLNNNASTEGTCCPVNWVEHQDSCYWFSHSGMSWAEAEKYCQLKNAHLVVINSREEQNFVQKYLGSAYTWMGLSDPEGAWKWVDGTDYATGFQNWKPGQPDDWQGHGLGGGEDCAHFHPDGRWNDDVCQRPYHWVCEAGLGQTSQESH

human KLRF1 = molecular target: T2, human KLRF1 (human, UniProt Q9NZS2)
T2 chain: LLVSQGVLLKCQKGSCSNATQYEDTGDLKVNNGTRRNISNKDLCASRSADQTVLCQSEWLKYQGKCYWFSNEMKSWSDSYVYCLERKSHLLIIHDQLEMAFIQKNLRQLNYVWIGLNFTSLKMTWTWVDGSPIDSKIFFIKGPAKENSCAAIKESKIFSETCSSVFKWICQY

human CD209 = molecular target: T3, human CD209 (human, UniProt Q9NNX6)
T3 chain: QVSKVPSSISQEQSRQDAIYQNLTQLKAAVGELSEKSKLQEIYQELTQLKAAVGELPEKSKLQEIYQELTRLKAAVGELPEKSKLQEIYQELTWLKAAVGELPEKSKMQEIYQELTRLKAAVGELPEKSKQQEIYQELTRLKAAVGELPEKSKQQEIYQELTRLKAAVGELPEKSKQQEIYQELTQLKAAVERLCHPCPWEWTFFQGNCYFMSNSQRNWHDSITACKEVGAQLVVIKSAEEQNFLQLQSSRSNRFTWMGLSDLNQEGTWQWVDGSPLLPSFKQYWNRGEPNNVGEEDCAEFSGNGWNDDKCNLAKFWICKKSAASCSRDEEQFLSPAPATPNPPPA

human Clec9A = human Clec9A (human, UniProt Q6UXN8)
human Clec4E = molecular target: T4, human Clec4E (human, UniProt Q9ULY5)
T4 chain: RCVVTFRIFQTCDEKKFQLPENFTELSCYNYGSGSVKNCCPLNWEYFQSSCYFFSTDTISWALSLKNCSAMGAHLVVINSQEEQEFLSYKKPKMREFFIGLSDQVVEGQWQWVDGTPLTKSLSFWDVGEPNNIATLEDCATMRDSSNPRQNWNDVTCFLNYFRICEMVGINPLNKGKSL

human KLRF2 = molecular target: T5, human KLRF2 (human, UniProt D3W0D1)
T5 chain: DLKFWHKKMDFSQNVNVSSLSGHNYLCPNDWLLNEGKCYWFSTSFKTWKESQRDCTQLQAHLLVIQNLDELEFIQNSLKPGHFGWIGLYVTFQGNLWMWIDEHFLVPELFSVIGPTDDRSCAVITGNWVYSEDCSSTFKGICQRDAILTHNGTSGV

human Clec12B = molecular target: T6, human Clec12B (human, UniProt Q2HXU8)
T6 chain: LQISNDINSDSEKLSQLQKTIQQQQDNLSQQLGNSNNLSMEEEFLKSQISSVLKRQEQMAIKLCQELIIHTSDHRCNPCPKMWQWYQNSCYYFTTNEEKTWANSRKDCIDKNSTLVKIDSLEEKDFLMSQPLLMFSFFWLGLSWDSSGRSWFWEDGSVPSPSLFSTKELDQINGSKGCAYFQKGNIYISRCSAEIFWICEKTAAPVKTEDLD

human CD94 = molecular target: T7, human CD94 (human, UniProt Q13241)
T7 chain: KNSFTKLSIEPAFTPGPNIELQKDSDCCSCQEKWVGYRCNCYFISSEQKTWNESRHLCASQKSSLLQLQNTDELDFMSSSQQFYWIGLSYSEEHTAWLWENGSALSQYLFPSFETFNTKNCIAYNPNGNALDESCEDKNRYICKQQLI

human Clec5A = molecular target: T8, human Clec5A (human, UniProt Q9NY25)
T8 chain: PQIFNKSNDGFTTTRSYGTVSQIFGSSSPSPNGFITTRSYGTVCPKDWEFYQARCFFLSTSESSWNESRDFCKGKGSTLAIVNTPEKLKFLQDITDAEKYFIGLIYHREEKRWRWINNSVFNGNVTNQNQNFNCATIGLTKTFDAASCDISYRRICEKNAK

human KLRG1 = molecular target: T9, human KLRG1 (human, UniProt Q96E93)
T9 chain: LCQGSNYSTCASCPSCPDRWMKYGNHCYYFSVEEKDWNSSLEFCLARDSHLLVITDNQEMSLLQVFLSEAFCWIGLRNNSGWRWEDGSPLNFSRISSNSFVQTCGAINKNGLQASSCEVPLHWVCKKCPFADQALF

human Clec7A = molecular target: T10, human Clec7A (human, UniProt Q9BXN2)
T10 chain: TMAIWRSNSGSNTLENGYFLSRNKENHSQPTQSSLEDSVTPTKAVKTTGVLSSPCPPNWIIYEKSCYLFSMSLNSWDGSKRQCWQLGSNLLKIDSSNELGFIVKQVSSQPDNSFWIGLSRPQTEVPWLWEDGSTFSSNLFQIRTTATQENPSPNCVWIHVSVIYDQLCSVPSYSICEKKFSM

human CD161 = human CD161 (human, UniProt Q12918)

human Clec9A, sequence (Q6UXN8 57-241): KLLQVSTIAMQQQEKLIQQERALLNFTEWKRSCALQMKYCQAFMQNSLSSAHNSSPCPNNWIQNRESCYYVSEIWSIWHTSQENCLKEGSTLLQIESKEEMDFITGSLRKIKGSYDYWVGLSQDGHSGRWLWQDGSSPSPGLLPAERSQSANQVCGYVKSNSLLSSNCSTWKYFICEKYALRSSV

binding result (human Clec10A): no binding
binding result (human KLRF1): no binding
binding result (human CD209): no binding
binding result (human Clec9A): no binding
binding result (human Clec4E): no binding
binding result (human KLRF2): no binding
binding result (human Clec12B): no binding
binding result (human CD94): no binding
binding result (human Clec5A): no binding
binding result (human KLRG1): no binding
binding result (human Clec7A): no binding
B2: KW1.3.12 (antibody)
chain 1: EVQLVESGGGLVQPGGSLRLSCAASGFTFSSYAMSWVRQAPGKGLEWVSTISGSGGSTYYADSVKGRFTISRDNSRNTLYLQMNSLRAEDTAVYYCARGGLIPSGFDYWGQGTLVTVSS
chain 2: DIQMTQSPSSLSASVGDRVTITCRASQSISSYLNWYQQKPGKAPKLLIYAASSLLSGVPSRFSGSGSGTDFTLTISSLQPEDFATYYCQQTYSAPLTFGQGTKVEIK

binding result (human Clec10A): no binding
binding result (human KLRF1): no binding
binding result (human CD209): no binding
binding result (human Clec9A): no binding
binding result (human Clec4E): no binding
binding result (human KLRF2): no binding
binding result (human Clec12B): no binding
binding result (human CD94): no binding
binding result (human Clec5A): no binding
binding result (human KLRG1): no binding
binding result (human Clec7A): no binding
B3: KW7.3.7 (antibody)
chain 1: B2 chain 1 with T50A, I51T, V64A, R76K, L101Y, I102L, S104D, G105A, Q111R
chain 2: B2 chain 2 with R24W, K39E, L55Q, A94T

Second part, the binder before the results:

B1: KM12.4.7 (antibody)
chain 1: EVQLVESGGGLVQPGGSLRLPCAASGFTFSSYAMSWIRQAPGKGLEWVSAISGSGGSIYYADSVKGRFTISRDNSKNTLYLQMDSLRAEDTAVYYCARGYSDSYFYGPYYTFDYWGQGTLVTVSS
chain 2: not shown
binding result (human Clec10A): no binding
binding result (human KLRF1): no binding
binding result (human CD209): no binding
binding result (human Clec9A): no binding
binding result (human Clec4E): no binding
binding result (human KLRF2): no binding
binding result (human Clec12B): no binding
binding result (human CD94): no binding
binding result (human Clec5A): no binding
binding result (human KLRG1): no binding
binding result (human Clec7A): no binding

B4: KW1.2.1 (antibody)
chain 1: B2 chain 1 with F27S
chain 2: B2 chain 2 with S65G, A94T
Kd (human CD161): 0.233 nM
